The values below come from US20190161555A1 (ALLIGATOR BIOSCIENCE, published 2019).

Experiment [1] concerns the target T1, 5T4-Fc (human, UniProt Q13641 32-355, limits assumed).
T1 construct: obtained from Peter L. Stern, University of Manchester; also called h5T4-Fc; recombinant 5T4
T1 sequence (looked up): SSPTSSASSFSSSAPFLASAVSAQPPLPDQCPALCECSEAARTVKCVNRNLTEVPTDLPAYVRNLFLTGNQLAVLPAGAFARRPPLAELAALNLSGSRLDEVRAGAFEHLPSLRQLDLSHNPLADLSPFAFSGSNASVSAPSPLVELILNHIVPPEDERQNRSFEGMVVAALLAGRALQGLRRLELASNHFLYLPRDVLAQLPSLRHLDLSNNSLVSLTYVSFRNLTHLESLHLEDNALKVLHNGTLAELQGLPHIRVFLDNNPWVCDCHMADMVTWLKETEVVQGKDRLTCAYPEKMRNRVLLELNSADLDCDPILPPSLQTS
Put plainly: ELISA, plates coated with 5T4-Fc. On the procedure: ELISA was performed using a standard protocol. Plates (#655074, Greiner Bio-One GmbH, Germany) were pre-coated with 0.5 μg/ml 5T4-Fc (obtained from Peter L. Stern, University of Manchester) overnight. 5T4 antibodies were diluted from 6 to 1.5×10⁻³ μg/ml in 1:4 dilutions and added in duplicates of 50 μl to each well. Binding was detected with rabbit anti-h kappa L-chain-HRP (P0129, Dako Denmark) and the ELISA was developed with SuperSignal ELISA PICO Chemiluminescent substrate (Thermo Scientific Pierce, Rockford, Ill. USA) for 2-10 minutes and read in an automated microplate based multi-detection reader (FLUOstar OPTIMA, Netherlands).
(ELISA stands for enzyme-linked immunosorbent assay.)

Experiment [2] has as its target T2, mouse 5T4 (mouse, UniProt Q9Z0L0 32-426).
T2 construct: whole, on cells; also called murine 5T4
T2 sequence (looked up): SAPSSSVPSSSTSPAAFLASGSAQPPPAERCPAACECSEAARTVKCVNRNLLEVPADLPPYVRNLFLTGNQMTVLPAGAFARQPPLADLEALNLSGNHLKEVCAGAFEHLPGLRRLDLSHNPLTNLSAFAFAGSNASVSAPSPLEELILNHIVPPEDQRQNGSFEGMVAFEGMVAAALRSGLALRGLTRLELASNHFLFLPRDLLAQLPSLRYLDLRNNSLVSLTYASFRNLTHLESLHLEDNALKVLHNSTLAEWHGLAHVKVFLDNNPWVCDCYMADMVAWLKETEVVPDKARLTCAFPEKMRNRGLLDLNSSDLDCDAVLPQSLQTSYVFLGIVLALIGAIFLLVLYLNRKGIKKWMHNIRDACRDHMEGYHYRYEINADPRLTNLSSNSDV
Nature of the experiment: flow cytometry, mouse 5T4-transfected cells.

The target in experiment [3] is T3, human 5T4 on transfected cells (human, UniProt Q13641 32-420).
T3 construct: whole, on cells; for B16 and A9 cells only a 5T4 construct is named; also called 5T4-transfected B16 cells; B16-5T4
T3 sequence (looked up): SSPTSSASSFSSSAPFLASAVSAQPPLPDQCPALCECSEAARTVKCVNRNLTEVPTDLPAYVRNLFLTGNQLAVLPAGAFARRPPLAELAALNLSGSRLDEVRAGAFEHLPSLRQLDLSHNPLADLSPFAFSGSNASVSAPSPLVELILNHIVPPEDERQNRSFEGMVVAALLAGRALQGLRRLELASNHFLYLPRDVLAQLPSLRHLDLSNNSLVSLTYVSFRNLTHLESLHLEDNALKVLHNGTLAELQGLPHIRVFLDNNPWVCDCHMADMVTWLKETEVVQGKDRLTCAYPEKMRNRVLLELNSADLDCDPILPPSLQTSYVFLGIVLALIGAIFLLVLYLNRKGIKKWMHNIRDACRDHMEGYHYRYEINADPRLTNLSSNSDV
Nature of the experiment: flow cytometry, 5T4-transfected A9 cells. On the procedure: (§1) Analysis of 5T4 mAb binding with flow cytometry was performed using 5T4-transfected cell lines and as negative control, mock transfected cells. Three different transfected cell lines used were used for this study; B16, A9 and CHO, transfected either with a 5T4 construct or with an empty vector control construct. Cells were stained with 5T4 antibodies diluted in FACS buffer (PBS, 0.5% BSA and 0.02% NaN₃). […] Samples were analysed either on a FACSCalibur or a FACSverse (BD Biosciences, Heidelberg, Germany) and mean fluorescence intensity (MFI) determined.

The target in experiment [4] is T3, human 5T4 on transfected cells. Put plainly: flow cytometry, 5T4-transfected B16 cells. As for the experimental part: as §1
In general terms: A flow cytometer gives signals particle by particle.

The target in experiment [5] is T4, cynomolgus 5T4 (Macaca mulatta (cynomolgus)).
T4 construct: whole, on cells; stably transfected CHO cells; also called cyno5T4; cy5T4
Nature of the experiment: flow cytometry, CHO cells transfected with cynomolgus 5T4. On the procedure:
(§2) The potency of 5T4 antibodies in binding to cynomolgus 5T4 was determined by flow cytometry. CHO cells were stably transfected with […] (cynomolgus) 5T4. […] Samples were analysed either on a FACSCalibur or a FACSverse (BD Biosciences, Heidelberg, Germany) and mean fluorescence intensity (MFI) determined. […] To compare the EC50 values between human and cynomolgus 5T4, the cy5T4/hu5T4 ratio was calculated from the experiment with the full dose-response.

Experiment [6] deals with T5, 5T4 (immobilised for SPR) (UniProt Q13641 32-355, limits assumed, biotinylated on the MASS-1 platform).
T5 construct: also called biotinylated 5T4
T5 sequence (looked up): T1 sequence (looked up)
Put plainly: SPR Biacore 3000, 5T4 amine-coupled, mAb injected, 1:1 Langmuir. As for the experimental part:
Binding kinetics of the 5T4-specific mAbs have been studied using two different SPR-based platforms, the Biacore 3000 (GE Healthcare) and the MASS-1 platform (Sierra Sensors). Briefly, 5T4 was captured at the sensor chip surface either via direct amine coupling (Biacore platform) or using a streptavidin coated chip and biotinylated 5T4 (MASS-1 platform). The different 5T4-specific mAbs were then injected over the chip in increasing concentrations and the association and dissociation rates studied in real time. A 1:1 Langmuir model was used for curve fitting.
On the technique in general: In SPR one partner is held on a chip, and binding of the other changes the refractive index at the surface.

The target of experiment [7] is T4, cynomolgus 5T4. Put plainly: flow cytometry, CHO cells with cynomolgus 5T4 against CHO cells with human 5T4. On the procedure:
as §2

The target in experiment [8] is T6, human/mouse 5T4 chimera E1.
T6 construct: on stably transfected CHO cells
Nature of the experiment: flow cytometry, cells with 5T4 chimera; % positive cells over that of the best clone. On the procedure:
(§3) Epitope mapping was performed by investigation of loss of binding by the antibodies using a panel of human/mouse chimeric 5T4 constructs by flow cytometry. […] Two strategies were used for the epitope mapping as illustrated in FIG. 5. In one approach, seven human/mouse 5T4 chimeras were constructed based on dividing 5T4 into seven different domains (FIG. 5). By replacing each domain with the corresponding mouse sequence seven human/mouse 7 5T4 human/mouse chimeras were generated. The chimeras were generated using the human protein 5T4 sequence NP_006661.1 (reference mRNA sequence NM_006670.4) and the corresponding mouse sequence NP_035757.2 (reference mRNA sequence NM_011627.4). The human/mouse chimeric DNA constructs, as well as human and mouse wild-type 5T4, were cloned into pcDNA3.1 expression vectors. […] In the other approach, cells transfected with a human/mouse 5T4 chimera (Woods et al., 2002) was used, in which mouse sequence in amino acid 173-420 replaced the human sequence (FIG. 5). As controls human 5T4 and mouse 5T4-transfected cells were used.
(§4) For flow cytometric analysis, cells were stained with different 5T4 antibodies diluted in FACS buffer (PBS, 0.5% BSA). […] Samples were analysed by FACSverse (BD Biosciences, Heidelberg, Germany) and % positive cells were determined. To compensate for variations in % 5T4 positive cells in the various transfected populations, binding levels were normalized within each chimera by dividing % positive cells for each clone with % positive cells for the clones resulting in the highest % positive cells (% pos cellsclonX/% positive cellsₘₐₓ). A normalized value≤0.75 was defined as mAb binding being dependent on the replaced region, whereas a normalized value≤0.25 was defined as complete dependence.

For experiment [9], the target named is T7, human/mouse 5T4 chimera E2.
T7 construct: on stably transfected CHO cells
Described as above. As for the experimental part: as §3, §4

Experiment [10] concerns the target T8, human/mouse 5T4 chimera E3.
T8 construct: on stably transfected CHO cells
Described as above. As for the experimental part: as §3, §4

The target in experiment [11] is T9, human/mouse 5T4 chimera E4.
T9 construct: on stably transfected CHO cells
Described as above. As for the experimental part:
as §3, §4

For experiment [12], the target named is T10, human/mouse 5T4 chimera E5.
T10 construct: on stably transfected CHO cells
The description is as above. As for the experimental part: as §3, §4

The target of experiment [13] is T11, human/mouse 5T4 chimera E6.
T11 construct: on stably transfected CHO cells
The description is as above. On the procedure:
as §3, §4

Experiment [14] has as its target T12, human/mouse 5T4 chimera E7.
T12 construct: on stably transfected CHO cells
The description is as above. On the procedure: as §3, §4

B1: 1212/1213 (antibody, IgG1, V domains shown)
VH: EVQLLESGGGLVQPGGSLRLSCAASGFTFSSYAMSWVRQAPGKGLEWVSYISSYGGYTSYADSVKGRFTISRDNSKNTLYLQMNSLRAEDTAVYYCARYHSGVLDYWGQGTLVTVSS
VL: DIQMTQSPSSLSASVGDRVTITCRASQSISSYLNWYQQKPGKAPKLLIYAASSLQSGVPSRFSGSGSGTDFTLTISSLQPEDFATYYCQQYYYHYLLTFGQGTKLEIK
notes: 5T4 antibody
Regarding B1, the results for the EC50 in [1], in experiment [4] and in [5] were 0.56 nM, 1.4 nM and 30.7 nM, respectively. Moreover, in experiment [2], the binding result is reported as “no binding”. Besides, the “Normalized EC50 (to 1628)” value is 0.4 ratio to 1628 in experiment [3] and 1.1 ratio to 1628 in experiment [4]. Also, the kon in experiment [6] is 450000 M⁻¹ s⁻¹. Moreover, the “Ratio EC50cyno-5T4/h5T4” value in experiment [7] stood at 140 ratio. The “normalized % positive cells” value in experiment [8] worked out at 0.89; in [9], 0.9; in [10], 0.93; in experiment [11], 1; in experiment [12], 0.84; in experiment [13], 0.03. The “normalized % positive cells” value in [14] came out at 0.88.

One may read the EC50 as the midpoint of the concentration-response curve. Read a high EC50 as a need for much substance. The kon is a measure of how fast the partners come together. Low values mean slow association, high ones fast association.
